Source: PMC3335016, “Analysis of the Nse3/MAGE-Binding Domain of the Nse4/EID Family Proteins” (PLoS ONE, 2012)

Experiments:
Test in all cases: ELISA; PEPSCAN ELISA; biotinylated EID2 peptides (400 nM) on streptavidin-coated plates; His-S-MAGEC2(129-339) 200–400 nM, 4°C overnight; anti-His detection
Conditions in all cases: both partners purified
EID2 peptide #1 (Q197A) = target: T1, EID2 peptide #1 (Q197A) (human, Q197A (stands in the printed letters), biotin, linked via the SGSG spacer)
T1 construct: source: synthetic peptide (Mimotopes)
T1 peptide: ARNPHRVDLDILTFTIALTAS

EID2 peptide #9 (L205A) = target: T2, EID2 peptide #9 (L205A) (human, L205A (stands in the printed letters), biotin, linked via the SGSG spacer)
T2 construct: source: synthetic peptide (Mimotopes)
T2 peptide: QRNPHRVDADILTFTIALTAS

EID2 peptide #11 (I207A) = target: T3, EID2 peptide #11 (I207A) (human, I207A (stands in the printed letters), biotin, linked via the SGSG spacer)
T3 construct: source: synthetic peptide (Mimotopes)
T3 peptide: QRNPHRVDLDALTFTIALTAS

EID2 peptide #6 (R202A) = target: T4, EID2 peptide #6 (R202A) (human, R202A (stands in the printed letters), biotin, linked via the SGSG spacer)
T4 construct: source: synthetic peptide (Mimotopes)
T4 peptide: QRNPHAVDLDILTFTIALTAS

EID2 peptide #2 (R198A) = target: T5, EID2 peptide #2 (R198A) (human, R198A (stands in the printed letters), biotin, linked via the SGSG spacer)
T5 construct: source: synthetic peptide (Mimotopes)
T5 peptide: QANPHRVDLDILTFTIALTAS

EID2 peptide #17 (L214A) = target: T6, EID2 peptide #17 (L214A) (human, L214A (stands in the printed letters), biotin, linked via the SGSG spacer)
T6 construct: source: synthetic peptide (Mimotopes)
T6 peptide: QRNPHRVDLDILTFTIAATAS

EID2 peptide #16 (I212A) = target: T7, EID2 peptide #16 (I212A) (human, I212A (stands in the printed letters), biotin, linked via the SGSG spacer)
T7 construct: source: synthetic peptide (Mimotopes)
T7 peptide: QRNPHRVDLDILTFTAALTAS

EID2 peptide #12 (L208A) = target: T8, EID2 peptide #12 (L208A) (human, L208A (stands in the printed letters), biotin, linked via the SGSG spacer)
T8 construct: source: synthetic peptide (Mimotopes)
T8 peptide: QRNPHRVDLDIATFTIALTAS

EID2 peptide #19 (S217A) = target: T9, EID2 peptide #19 (S217A) (human, S217A (stands in the printed letters), biotin, linked via the SGSG spacer)
T9 construct: source: synthetic peptide (Mimotopes)
T9 peptide: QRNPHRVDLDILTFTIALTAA

EID2 peptide #10 (D206A) = target: T10, EID2 peptide #10 (D206A) (human, D206A (stands in the printed letters), biotin, linked via the SGSG spacer)
T10 construct: source: synthetic peptide (Mimotopes)
T10 peptide: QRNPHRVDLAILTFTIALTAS

EID2 peptide #14 (F210A) = target: T11, EID2 peptide #14 (F210A) (human, F210A (stands in the printed letters), biotin, linked via the SGSG spacer)
T11 construct: source: synthetic peptide (Mimotopes)
T11 peptide: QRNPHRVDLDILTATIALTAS

EID2 peptide #18 (T215A) = target: T12, EID2 peptide #18 (T215A) (human, T215A (stands in the printed letters), biotin, linked via the SGSG spacer)
T12 construct: source: synthetic peptide (Mimotopes)
T12 peptide: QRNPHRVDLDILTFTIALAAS

B1: His-S-MAGEC2(129-339) (domain or fragment, human, UniProt Q9UBF1 129-339, looked up)
chain: GLPDSESSFTYTLDEKVAELVEFLLLKYEAEEPVTEAEMLMIVIKYKDYFPVILKRAREFMELLFGLALIEVGPDHFCVFANTVGLTDEGSDDEGMPENSLLIIILSVIFIKGNCASEEVIWEVLNAVGVYAGREHFVYGEPRELLTKVWVQGHYLEYREVPHSSPPYYEFLWGPRAHSESIKKKVLEFLAKLNNTVPSSFPSWYKDALKD
notes: source: E. coli C41, purified (His-TRAP column, FPLC)
percent of wt binding affinity (EID2 peptide #1 (Q197A)): ~30 % of wt | percent of wt binding affinity (EID2 peptide #9 (L205A)): ~30 % of wt | percent of wt binding affinity (EID2 peptide #11 (I207A)): ~30 % of wt | percent of WT affinity (EID2 peptide #6 (R202A)): < 20 % of WT affinity | percent of WT affinity (EID2 peptide #2 (R198A)): < 20 % of WT affinity | percent of WT affinity (EID2 peptide #17 (L214A)): < 20 % of WT affinity | percent of WT affinity (EID2 peptide #16 (I212A)): < 20 % of WT affinity | percent of wt binding affinity (EID2 peptide #12 (L208A)): ~30 % of wt | percent of wt binding affinity (EID2 peptide #19 (S217A)): ~30 % of wt | percent of wt binding affinity (EID2 peptide #10 (D206A)): ~30 % of wt | percent of WT affinity (EID2 peptide #14 (F210A)): < 20 % of WT affinity | percent of wt binding affinity (EID2 peptide #18 (T215A)): ~30 % of wt
